In patent US20180155451A1 (published 2018):
Positions count from the first letter of the chain named. In names and notes the source's numbering stands.

B1: GpH7-A5/GpH7-B3 variant P271_01G/GpL16-k0 (antibody, human IgG1, kappa)
heavy 1: not shown
heavy 2: not shown
light: DIVMTQSPLSLPVTPGEPASISCQASESLVHSNRNTYLHWYLQKPGQSPQLLIYKVSNRFSGVPDRFSGSGSGTDFTLKISRVEAEDVGVYYCSQNTHVPPTFGQGTKVEIERTVAAPSVFIFPPSDEQLKSGTASVVCLLNNFYPREAKVQWKVDNALQSGNSQESVTEQDSKDSTYSLSSTLTLSKADYEKHKVYACEVTHQGLSSPVTKSFNRGEC
notes: also called He Ab P271_01G
B2: GpH7-A5/GpH7-B3 variant S324_16H/GpL16-k0 (antibody, human IgG1, kappa)
heavy 1: not shown
heavy 2: not shown
light: B1 light
notes: also called He Ab S324_16H
B3: GpH7-TA4/GpH7-B3/GpL16-k0 (antibody, human IgG1, kappa)
heavy 1: QVQLVQSGAEVKKPGASVTVSCKASGYTFTDYEMHWIRQPPGEGLEWIGAIDPKTGDTAYSESFQDRVTLTADKSTSTAYMELSSLTSEDTAVYYCTRFYSYTYWGQGTLVTVSSASTKGPSVFPLAPSSKSTSGGTAALGCLVKDYFPEPVTVSWNSGALTSGVHTFPAVLQSSGLYSLSSVVTVPSSSLGTQTYICNVNHKPSNTKVDKKVEPKSCDKTHTCPPCPAPEYLWGPSVFLFPPKPKDTLMISRTPEVTCVVVDVSHEDPEVKFNWYVDGVEVHNAKTKPREEQYNSTYRVVSVLTVLHQDWLNGKEYKCKVSNKALPAPIEKTISKAKGQPREPQVYTLPPSRKELTKNQVSLTCLVKGFYPSDIAVEWESNGQPENNYKTTPPVLDSDGSFFLYSKLTVDKSRWQQGNVFSCSVMHEALHNRYTQKSLSLSP
heavy 2: not shown
light: B1 light
notes: H1 L234Y and G236W
B4: GpH7-A5/GpH7-B3 variant S324_15Y/GpL16-k0 (antibody, human IgG1, kappa)
heavy 1: not shown
heavy 2: not shown
light: B1 light
notes: also called He Ab S324_15Y
B5: GpH7-A5/GpH7-B16/GpL16-k0 (antibody, human IgG1, kappa)
heavy 1: not shown
heavy 2: not shown
light: B1 light
notes: also called He Ab L234_10E; GpH7-A5/GpH7-B3 variant L234_10E/GpL16-k0
B6: GpH7-TA2/GpH7-B3-01-15Y/GpL16-k0 (antibody, human IgG1, kappa)
heavy 1: B3 heavy 1 with Y232L
heavy 2: not shown
light: B1 light
notes: H1 G236W; H2 L234Y
B7: GpH7-TA6/GpH7-B3/GpL16-k0 (antibody, human IgG1, kappa)
heavy 1: B3 heavy 1 with Y232L, S296A
heavy 2: not shown
light: B1 light
notes: H1 G236W and S298A
B8: GpH7-A5/GpH7-B3-03-20W/GpL16-k0 (antibody, human IgG1, kappa)
heavy 1: not shown
heavy 2: not shown
light: B1 light
notes: also called He Ab G236_20W; GpH7-A5/GpH7-B3 variant G236_20W/GpL16-k0
B9: GpH7-A5/GpH7-B3 variant S298_14T/GpL16-k0 (antibody, human IgG1, kappa)
heavy 1: not shown
heavy 2: not shown
light: B1 light
notes: also called He Ab S298_14T
B10: GpH7-A5/GpH7-B3 variant T335_19Q/GpL16-k0 (antibody, human IgG1, kappa)
heavy 1: not shown
heavy 2: not shown
light: B1 light
notes: also called He Ab T335_19Q
B11: GpH7-A5/GpH7-B3 variant S337_15Y/GpL16-k0 (antibody, human IgG1, kappa)
heavy 1: not shown
heavy 2: not shown
light: B1 light
notes: also called He Ab S337_15Y
B12: GpH7-A5/GpH7-B3-15-02A/GpL16-k0 (antibody, human IgG1, kappa)
heavy 1: not shown
heavy 2: not shown
light: B1 light
notes: H2 S298A
B13: GpH7-A5/GpH7-B3 variant S337_20W/GpL16-k0 (antibody, human IgG1, kappa)
heavy 1: not shown
heavy 2: not shown
light: B1 light
notes: also called He Ab S337_20W
B14: GpH7-TA7/GpH7-B3/GpL16-k0 (antibody, human IgG1, kappa)
heavy 1: B3 heavy 1 with S296A
heavy 2: not shown
light: B1 light
notes: H1 L234Y, G236W and S298A
B15: GpH7-A5/GpH7-B3 variant T335_16H/GpL16-k0 (antibody, human IgG1, kappa)
heavy 1: not shown
heavy 2: not shown
light: B1 light
notes: also called He Ab T335_16H
B16: GpH7-TA1/GpH7-B3-15-02A/GpL16-k0 (antibody, human IgG1, kappa)
heavy 1: B3 heavy 1 with W234G
heavy 2: not shown
light: B1 light
notes: H1 L234Y; H2 S298A
B17: GpH7-A5/GpH7-B3-01-15Y/GpL16-k0 (antibody, human IgG1, kappa)
heavy 1: not shown
heavy 2: not shown
light: B1 light
notes: also called He Ab L234_15Y; GpH7-A5/GpH7-B3 variant L234_15Y/GpL16-k0
B18: GpH7-A5/GpH7-B17/GpL16-k0 (antibody, human IgG1, kappa)
heavy 1: not shown
heavy 2: not shown
light: B1 light
notes: also called He Ab L234_09D; GpH7-A5/GpH7-B3 variant L234_09D/GpL16-k0
B19: GpH7-A5/GpH7-B3 variant S267_09D/GpL16-k0 (antibody, human IgG1, kappa)
heavy 1: not shown
heavy 2: not shown
light: B1 light
notes: also called He Ab S267_09D
B20: GpH7-A5/GpH7-B3 variant S337_09D/GpL16-k0 (antibody, human IgG1, kappa)
heavy 1: not shown
heavy 2: not shown
light: B1 light
notes: also called He Ab S337_09D
B21: GpH7-TA5/GpH7-B3/GpL16-k0 (antibody, human IgG1, kappa)
heavy 1: B3 heavy 1 with W234G, S296A
heavy 2: not shown
light: B1 light
notes: H1 L234Y and S298A

These binders were tested against T1, FcγRIIIa extracellular domain with C-terminal His tag (human, UniProt P08637 17-208) (assay: SPR relative binding; GpH7-A5/GpH7-B3/GpL16-k0 = 100).
T1 construct: extracellular domain; also called FcgRIIIa; 3a; not shown: His tag at the C terminus
Procedure: Analysis of interaction between objective antibody and the FcγR was carried out using Biacore T100 (GE Healthcare). HBS-EP+ (GE Healthcare) was used as the running buffer, and the measurement temperature was set to 25° C. Chips produced by immobilizing the antigen peptide by the amine coupling method to a Series S Sencor Chip CM5 (GE Healthcare), or alternatively, chips produced by allowing preliminarily biotinylated antigen peptides to interact with and immobilize onto a Series S Sensor Chip SA (certified) (GE Healthcare) were used. Antibodies of interest were captured onto an antigen peptide-immobilized chip, and allowed to interact to each FcγR diluted with running buffer. To regenerate and repeatedly use the chip, the antibodies captured on the chip were washed off by reacting 10 mM glycine-HCl, pH 1.5.
The FcγR-binding activity of each antibody was assessed primarily using as an indicator the FcγR-binding activity and dissociation constant for FcγR.

T1 sequence (P08637 17-208): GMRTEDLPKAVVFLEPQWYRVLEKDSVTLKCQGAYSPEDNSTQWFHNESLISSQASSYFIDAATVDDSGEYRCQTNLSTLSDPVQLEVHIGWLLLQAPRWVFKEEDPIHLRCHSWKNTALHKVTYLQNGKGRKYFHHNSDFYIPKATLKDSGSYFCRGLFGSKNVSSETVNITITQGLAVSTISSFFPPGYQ

Binder | He/Con_3a | FcγRIIIa BINDING ACTIVITY
B1 | 113 % of control | –
B2 | 104 % of control | –
B3 | – | 168 % of control
B4 | 101 % of control | –
B5 | 114 % of control | –
B6 | – | 130 % of control
B7 | – | 228 % of control
B8 | 135 % of control | 140 % of control
B9 | 113 % of control | –
B10 | 102 % of control | –
B11 | 102 % of control | –
B12 | – | 163 % of control
B13 | 101 % of control | –
B14 | – | 201 % of control
B15 | 104 % of control | –
B16 | – | 142 % of control
B17 | 130 % of control | 131 % of control
B18 | 117 % of control | –
B19 | 181 % of control | –
B20 | 110 % of control | –
B21 | – | 208 % of control
